The chains are these.
B1: A-CD137×CEA-M1 (bispecific antibody, human IgG1, kappa)
heavy: QVQLVQSGAEVKKPGASVKVSCKASGYIFTSYYLHWVRQAPGQGLEWIGYINPQTGKTSYAQKFQGRVTMTRDTSTSTVYMELSSLRSEDTAVYYCAREYGNYNYPLDYWGQGTLVTVSSASTKGPSVFPLAPSSKSTSGGTAALGCLVKDYFPEPVTVSWNSGALTSGVHTFPAVLQSSGLYSLSSVVTVPSSSLGTQTYICNVNHKPSNTKVDKKVEPKSCDKTHTCPPCPAPPAAGPSVFLFPPKPKDTLMISRTPEVTCVVVDVSHEDPEVKFNWYVDGVEVHNAKTKPREEQYNSTYRVVSVLTVLHQDWLNGKEYKCKVSNKALAAPIEKTISKAKGQPREPQVYTLPPSREEMTKNQVSLTCLVKGFYPSDIAVEWESNGQPENNYKTTPPVLDSDGSFFLYSKLTVDKSRWQQGNVFSCSVMHEALHNHYTQKSLSLSPGKGGGGSEVQLLESGGGLVQPGGSLRLSCAASGFTLSAEDMGWVRQAPGKGLEWVSAILDFGGSTYYAESVKGRFTISRDNAKNTLYLQMSSLRAEDTAVYYCARVVYHAGGGVTFDYWGQGTLVTVSS
light: DIQMTQSPSSLSASVGDRVTITCRASENQYGYLAWYQQKPGKVPKLLIYNYKNLVEGVPSRFSGSGSGTDFTLTISSLQPEDVATYYCQHHLGTPYTFGQGTKVEIKRTVAAPSVFIFPPSDEQLKSGTASVVCLLNNFYPREAKVQWKVDNALQSGNSQESVTEQDSKDSTYSLSSTLTLSKADYEKHKVYACEVTHQGLSSPVTKSFNRGEC
B2: A-CD137×CEA-M2 (bispecific antibody)
heavy: B1 heavy with F481R
light: B1 light
notes: V35M as printed
B3: A-CD137×CEA-M6 (bispecific antibody)
heavy: B1 heavy with F481R, E516D
light: B1 light
notes: V35M as printed
B4: A-CD137×CEA-M5 (bispecific antibody)
heavy: B1 heavy with E516D
light: B1 light
notes: V35M as printed
B5: A-CD137×CEA-M4 (bispecific antibody, human IgG1, kappa)
heavy: B1 heavy with F481R, M488V
light: B1 light
B6: A-CD137×CEA-M7 (bispecific antibody, human IgG1, kappa)
heavy: B1 heavy with M488V, E516D
light: B1 light
B7: A-CD137×CEA-M8 (bispecific antibody, human IgG1, kappa)
heavy: B1 heavy with F481R, M488V, E516D
light: B1 light
B8: CH3-BGA-4712-M3 (other)
chain: GQPREPQVYTLPPSREEMTKNQVSLTCLVKGFYPSDIAVEWESNGQPENNYKTTPPVLDSDGSFFLYSKLTVDKSRWQQGNVFSCSVMHEALHNHYTQKSLSLSPGKGGGGSEVQLLESGGGLVQPGGSLRLSCAASGFTLSAEDVGWVRQAPGKGLEWVSAILDFGGSTYYAESVKGRFTISRDNAKNTLYLQMSSLRAEDTAVYYCARVVYHAGGGVTFDYWGQGTLVTVSS
notes: Tested as bacterial supernatant; expressed as a dimer of CH3 fusion proteins from the phagemid; also called CH3 fusion of anti-huCD137 VH domain antibody
B9: CH3-BGA-4712-M3 with W47Y mutation in VH region (other)
chain: B8 chain with W159Y
B10: CH3-BGA-4712-M3 with W47F mutation in VH region (other)
chain: B8 chain with W159F
B11: CH3-BGA-4712-M3 with W47G mutation in VH region (other)
chain: B8 chain with W159G
notes: built from pieces so that position 47 counts on the VH
B12: BE-375 (E-IgG1-BGA-5623) (bispecific antibody)
heavy: not shown
light: B1 light
B13: BE-755 (ZW1+2) (bispecific antibody, human IgG1, L234A L235A)
heavy 1: QVQLVQSGAEVKKPGASVKVSCKASGYIFTSYYLHWVRQAPGQGLEWIGYINPQTGKTSYAQKFQGRVTMTRDTSTSTVYMELSSLRSEDTAVYYCAREYGNYNYPLDYWGQGTLVTVSSASTKGPSVFPLAPSSKSTSGGTAWLGCEVTDYFPEPVTVSWNSGALTSGVHTFPAVLESSGLYSLSSVVTVPSSSLGTQTYICNVNHKPSNTKVDKKVEPKSCDKTHTCPPCPAPEAAGGPSVFLFPPKPKDTLMISRTPEVTCVVVSVSHEDPEVKFNWYVDGVEVHNAKTKPREEQYNSTYRVVSVLTVLHQDWLNGKEYKCKVSNKALPAPIEKTISKAKGQPREPQVYVLPPSRDELTKNQVSLLCLVKGFYPSDIAVEWESNGQPENNYLTWPPVLDSDGSFFLYSKLTVDKSRWQQGNVFSCSVMHEALHNHYTQKSLSLSPGK
light: B1 light with F116A, Q124R, L135V, T178R
heavy 2: not shown
B14: BE-942 (ZW 1+1) (bispecific antibody, human IgG1, L234A L235A)
heavy 1: B13 heavy 1
light: B1 light with F116A, Q124R, L135V, T178R
heavy 2: not shown
B15: BE-562 (E-muFc-BGA-5623) (bispecific antibody)
heavy: EVQLLESGGGLVQPGGSLRLSCAASGFTVSAEDVGWVRQAPGKGLEWVSAILDKGGSTYYAESVKGRFTISRDNAKNTLYLQMSSLRAEDTAVYYCARIVYHAGGGVTFDTRGQGTQVTVSSEPKSSDKTHTCPPCPAPPAAGPSVFLFPPKPKDTLMISRTPEVTCVVVDVSHEDPEVKFNWYVDGVEVHNAKTKPREEQYNSTYRVVSVLTVLHQDWLNGKEYKCKVSNKALAAPIEKTISKAKGQPREPQVYTLPPSREEMTKNQVSLTCLVKGFYPSDIAVEWESNGQPENNYKTTPPVLDSDGSFFLYSKLTVDKSRWQQGNVFSCSVMHEALHNHYTQKSLSLSPGKGGGGSQVQLVQSGAEVKKPGASVKVSCKASGYIFTSYYLHWVRQAPGQGLEWIGYINPQTGKTSYAQKFQGRVTMTRDTSTSTVYMELSSLRSEDTAVYYCAREYGNYNYPLDYWGQGTLVTVSSASTKGPSVFPLAPSSKSTSGGTAALGCLVKDYFPEPVTVSWNSGALTSGVHTFPAVLQSSGLYSLSSVVTVPSSSLGTQTYICNVNHKPSNTKVDKKVEPKSCD
light: B1 light
B16: BE-244 (A-(G4S)3-BGA-5623) (bispecific antibody, human IgG1, kappa)
heavy: QVQLVQSGAEVKKPGASVKVSCKASGYIFTSYYLHWVRQAPGQGLEWIGYINPQTGKTSYAQKFQGRVTMTRDTSTSTVYMELSSLRSEDTAVYYCAREYGNYNYPLDYWGQGTLVTVSSASTKGPSVFPLAPSSKSTSGGTAALGCLVKDYFPEPVTVSWNSGALTSGVHTFPAVLQSSGLYSLSSVVTVPSSSLGTQTYICNVNHKPSNTKVDKKVEPKSCDKTHTCPPCPAPPAAGPSVFLFPPKPKDTLMISRTPEVTCVVVDVSHEDPEVKFNWYVDGVEVHNAKTKPREEQYNSTYRVVSVLTVLHQDWLNGKEYKCKVSNKALAAPIEKTISKAKGQPREPQVYTLPPSREEMTKNQVSLTCLVKGFYPSDIAVEWESNGQPENNYKTTPPVLDSDGSFFLYSKLTVDKSRWQQGNVFSCSVMHEALHNHYTQKSLSLSPGKGGGGSGGGGSGGGGSEVQLLESGGGLVQPGGSLRLSCAASGFTVSAEDVGWVRQAPGKGLEWVSAILDKGGSTYYAESVKGRFTISRDNAKNTLYLQMSSLRAEDTAVYYCARIVYHAGGGVTFDTRGQGTQVTVSS
light: B1 light

From patent US20240209106A1 (BEIGENE SWITZERLAND, published 2024) come the findings set out here.

Numbering of substitutions follows the chain as printed. Numbers in names are those of the source.

For one assay, the target named is T1, full-length human CD137 (huCD137) (human, UniProt Q07011 24-255).
T1 construct: On transduced Hut78 cells (Hut78/huCD137), transiently on HEK293 cells, or natively on PBMC/T cells; also called TNFRSF9; 4-1BB
T1 sequence (Q07011 24-255 limits assumed): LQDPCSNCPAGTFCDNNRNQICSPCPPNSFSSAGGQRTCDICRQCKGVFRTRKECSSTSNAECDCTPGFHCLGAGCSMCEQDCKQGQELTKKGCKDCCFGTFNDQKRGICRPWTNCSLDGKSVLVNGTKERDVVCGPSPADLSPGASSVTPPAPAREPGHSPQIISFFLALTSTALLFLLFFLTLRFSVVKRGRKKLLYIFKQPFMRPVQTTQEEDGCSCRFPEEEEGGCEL
Kind of assay: flow cytometry on Hut78/huCD137 cells.
For B1, the binding result is “binds”.

For B2, the EC50 (read off the curve) (in general, the concentration needed to bring the measured effect to its halfway point) was approximately 2 µg/mL.

On to B3, for which the “EC50 (read off the curve)” value was approximately 2 µg/mL.

As for B4, the “EC50 (read off the curve)” value is approximately 2 µg/mL.

On to B5, for which the binding result is reported as “binds”.

Regarding B6, the “EC50 (read off the curve)” value was approximately 0.1 µg/mL.

Turning to B7, the “EC50 (read off the curve)” value is approximately 0.5 µg/mL.

Another assay deals with human CD137 ECD-mIgG2a (human). Description: ELISA on coated human CD137-ECD-mIgG2a with supernatant containing the CH3 fusion [panel B]. Background: An ELISA detects its analyte on a solid surface through an enzyme-linked reagent.
Chain of human CD137 ECD-mIgG2a (human) (chain, as listed by the source limits assumed): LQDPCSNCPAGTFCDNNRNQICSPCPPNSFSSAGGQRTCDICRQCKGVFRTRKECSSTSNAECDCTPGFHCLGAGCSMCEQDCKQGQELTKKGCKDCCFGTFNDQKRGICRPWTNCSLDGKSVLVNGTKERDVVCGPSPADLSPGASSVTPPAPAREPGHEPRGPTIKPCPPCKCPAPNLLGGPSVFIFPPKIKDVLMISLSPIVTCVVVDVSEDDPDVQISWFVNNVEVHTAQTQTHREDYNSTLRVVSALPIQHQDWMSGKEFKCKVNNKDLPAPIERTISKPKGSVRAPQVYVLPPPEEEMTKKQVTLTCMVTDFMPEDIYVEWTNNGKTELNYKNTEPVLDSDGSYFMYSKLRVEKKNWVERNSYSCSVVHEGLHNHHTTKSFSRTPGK
For the molecule B8, the binding result was “binds”.

B9: the binding result was “no binding”.

Consider B10, for which the binding result was “no binding”.

B11: the binding result is reported as “no binding”.

A further assay has as its target T1, full-length human CD137 (huCD137). Kind of assay: cell-based or functional assay.
B12: the “Functional assay EC50 (ug/ml), in vitro CD137 activation (PBMC cytokine release)” value (“Functional assay EC50 (ug/ml)” for short) is 1.76 µg/mL.

In the case of B13, the “Functional assay EC50 (ug/ml)” value was found to be 1.16 µg/mL.

As to B14, the “Functional assay EC50 (ug/ml)” value turned out to be 25.1 µg/mL.

B15: the “Functional assay EC50 (ug/ml)” value is 4.69 µg/mL.

For B16, the “Functional assay EC50 (ug/ml)” value came out at 0.18 µg/mL.

In another assay the target is human CD137 ECD-mIgG2a (human). Description: SPR, antibody captured on anti-human Fc surface; analyte taken as human CD137 ECD-mIgG2a. Background: SPR reads the build-up and loss of mass on a sensor chip optically.
B1: binding was characterised by a dissociation constant (Kd) of 586 nM; the koff (as a rule, the first-order rate constant of dissociation) worked out at 0.00455 s⁻¹; the kon (in general, a measure of how fast the partners come together) turned out to be 7770 M⁻¹ s⁻¹.

Turning to B2, the Kd – broadly, the concentration at which binding is half-saturated – is 232 nM; the koff came out at 0.0105 s⁻¹; the kon stood at 45200 M⁻¹ s⁻¹.

B3 came in with an equilibrium dissociation constant (Kd) of 767 nM, a dissociation rate constant (koff) of 0.0114 s⁻¹ and an on-rate constant (kon) of 14800 M⁻¹ s⁻¹.

Take B4: binding was put at a Kd of 646 nM, the koff worked out at 0.00574 s⁻¹ and the on-rate constant (kon) stood at 8890 M⁻¹ s⁻¹.

For the molecule B5, the equilibrium dissociation constant (Kd) worked out at 194 nM, the koff stood at 0.0247 s⁻¹ and the on-rate (kon) was determined as 127000 M⁻¹ s⁻¹.

With B6, the Kd came out at 266 nM, the koff was found to be 0.003 s⁻¹ and the kon was found to be 11300 M⁻¹ s⁻¹.

Turning to B7, binding was characterised by a dissociation constant (Kd) of 184 nM, the koff was found to be 0.0534 s⁻¹ and the kon was 290000 M⁻¹ s⁻¹.
